This passage reports protein stability index results from the supplement of paper PMC10567573.

To fix the notation:
B1: TRAF3IP2 (parent)
chain: KQGSMNFRFIPVLFPNAKKEHVPT
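Note: lentivirally expressed fusions sorted by FACS into six bins by GFP to DsRed ratio, PSI derived from sequencing read proportions per bin multiplied by bin number.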

The variants in this data set derive from B1. Briefly: protein stability index of a GFP-peptide fusion (GPS, HEK-293T) (PSI 1-6); higher = more stable. The settings on record: c terminus: a fixed tail appended.
With KQGSMNFRFTPVLFPNAKKEHVPT, the protein stability index is 2.07.
As to KQGSMNFRFAPVLFPNAKKEHVPT, the protein stability index stood at 1.98.
On to KQGSMNFRFDPVLFPNAKKEHVPT, for which the protein stability index amounted to 3.37.
The result for KQGSMNFRFKPVLFPNAKKEHVPT reads 2.56.
Under KQGSMNFRFSPVLFPNAKKEHVPT stands 2.46; under KQGSMNFRFLPVLFPNAKKEHVPT, 2.23; under KQGSMNFRFYPVLFPNAKKEHVPT, 2.29.
In the case of KQGSMNFRFHPVLFPNAKKEHVPT, the protein stability index amounted to 1.67.
As to KSGSMNFRFIPVLFPNAKKEHVPT, the protein stability index was 1.82.
On to KEGSMNFRFIPVLFPNAKKEHVPT, for which the protein stability index turned out to be 2.13.
The result for KDGSMNFRFIPVLFPNAKKEHVPT reads 1.8; that for KLGSMNFRFIPVLFPNAKKEHVPT, 2.23; that for KFGSMNFRFIPVLFPNAKKEHVPT, 1.87.
Regarding KTGSMNFRFIPVLFPNAKKEHVPT, the protein stability index was 1.84.
With KQGSMAFRFIPVLFPNAKKEHVPT, the protein stability index was found to be 1.76.
As to KQGSMLFRFIPVLFPNAKKEHVPT, the protein stability index was 1.81.
Consider KQGSMSFRFIPVLFPNAKKEHVPT, for which the protein stability index amounted to 1.96.
KQGSMEFRFIPVLFPNAKKEHVPT: the protein stability index worked out at 2.1.
The result for KQGSMCFRFIPVLFPNAKKEHVPT reads 1.67.
For KQGSMPFRFIPVLFPNAKKEHVPT, the protein stability index worked out at 2.44.
Consider KQGSMTFRFIPVLFPNAKKEHVPT, for which the protein stability index amounted to 1.96.
Under KQGSMIFRFIPVLFPNAKKEHVPT stands 2.15; under KQGSMRFRFIPVLFPNAKKEHVPT, 1.66.
Under KQGSMHFRFIPVLFPNAKKEHVPT stands 1.72.
The result for KQGSMNFRFIPVLFPIAKKEHVPT reads 2.29; that for KQGSMNFRFIPVLFPRAKKEHVPT, 2.59.
As to KQGSMNFRFIPVLFPSAKKEHVPT, the protein stability index is 2.33.
As for KQGSMNFRFIPVLFPGAKKEHVPT, the protein stability index stood at 2.08.
With KQGSMNFRFIPVLFPKAKKEHVPT, the protein stability index was 1.72.
Consider KQGSMNFRFIPVLFPTAKKEHVPT, for which the protein stability index was determined as 1.7.
With KQGSMNFRFIPVLFPPAKKEHVPT, the protein stability index turned out to be 1.92.
Under KQGSMNFRFIPVLFPQAKKEHVPT stands 1.75; under KQGSMNFRFIPVLFPYAKKEHVPT, 1.8.
Consider KQGSMNFRFIPVLFPEAKKEHVPT, for which the protein stability index came out at 1.85.
The result for KQGSMNFRFIPVLFPNAKKEHFPT reads 2.16; that for KQGSMNFRFIPVLFPNAKKEHQPT, 1.96.
Regarding KQGSMNFRFIPVLFPNAKKEHMPT, the protein stability index came to 2.24.
On to KQGSMNFRFIPVLFPNAKKEHSPT, for which the protein stability index was 3.
Take KQGSMNFRFIPVLFPNAKKEHWPT: the protein stability index came out at 1.6.
As for KQGSMNFRFIPVLFPNAKKEHHPT, the protein stability index came to 1.73.
As for KQGSMNFRFIPVLFPNSKKEHVPT, the protein stability index was 2.21.
For KQGSMNFRFIPVLFPNKKKEHVPT, the protein stability index came out at 1.82.
Take KQGSMNFRFIPVLFPNWKKEHVPT: the protein stability index amounted to 1.74.
Under KQGSMNFRFIPVLFPNGKKEHVPT stands 2.18; under KQGSMNFRFIPVLFPNVKKEHVPT, 1.61.
As to KQGSMNFRFIPVLFPNMKKEHVPT, the protein stability index came to 2.08.
Take KQGSMNFRFIPVLFPNCKKEHVPT: the protein stability index was 1.97.
For the variant KQGSMNFRFIPVLFPNNKKEHVPT, the protein stability index turned out to be 2.
In the case of KQGSMNFRFIPVLFPNEKKEHVPT, the protein stability index amounted to 2.47.
Turning to KQGSMNFRFIPVLFPNTKKEHVPT, the protein stability index amounted to 2.86.
As for KQGSMNFRFIPVLFPNAKTEHVPT, the protein stability index turned out to be 1.75.
In the case of KQGSMNFRFIPVLFPNAKLEHVPT, the protein stability index came to 1.78.
Regarding KQGSMNFRFIPVLFPNAKEEHVPT, the protein stability index is 1.99.
With KQGSMNFRFIPVLFPNAKNEHVPT, the protein stability index came out at 1.7.
Under KQGSMNFRFIPVLFPNAKAEHVPT stands 1.66; under KQGSMNFRFIPVLFPNAKSEHVPT, 1.98; under KQGSMNFRFIPVLFPNAKPEHVPT, 1.6.
For KQGSMNFRFIPVLFPNAKVEHVPT, the protein stability index turned out to be 1.65.
Under KQGSMNFRFIPVLFPNAKREHVPT stands 1.59; under KQGSMNARFIPVLFPNAKKEHVPT, 2.95; under KQGSMNGRFIPVLFPNAKKEHVPT, 3.01.
The result for KQGSMNWRFIPVLFPNAKKEHVPT reads 2.23; that for KQGSMNVRFIPVLFPNAKKEHVPT, 2.13.
On to KQGSMNMRFIPVLFPNAKKEHVPT, for which the protein stability index was 2.32.
As to KQGSMNPRFIPVLFPNAKKEHVPT, the protein stability index was determined as 3.31.
For KQGSMNIRFIPVLFPNAKKEHVPT, the protein stability index was 2.12.
Take KQGSMNNRFIPVLFPNAKKEHVPT: the protein stability index was 2.92.
Turning to KQGSMNFREIPVLFPNAKKEHVPT, the protein stability index was determined as 3.94.
With KQGSMNFRWIPVLFPNAKKEHVPT, the protein stability index was determined as 2.31.
Take KQGSMNFRIIPVLFPNAKKEHVPT: the protein stability index was determined as 2.06.
KQGSMNFRNIPVLFPNAKKEHVPT: the protein stability index turned out to be 3.56.
With KQGSMNFRRIPVLFPNAKKEHVPT, the protein stability index was found to be 2.84.
On to KQGSMNFRSIPVLFPNAKKEHVPT, for which the protein stability index is 3.2.
Consider KQGSMNFRTIPVLFPNAKKEHVPT, for which the protein stability index was found to be 3.66.
Consider KQGSMNFRYIPVLFPNAKKEHVPT, for which the protein stability index amounted to 2.5.
Take KQGSMNFRMIPVLFPNAKKEHVPT: the protein stability index stood at 2.69.
With KQGSMNFRAIPVLFPNAKKEHVPT, the protein stability index was determined as 3.43.
In the case of KQGSMNFRQIPVLFPNAKKEHVPT, the protein stability index was found to be 3.3.
With KQGSMNFRHIPVLFPNAKKEHVPT, the protein stability index amounted to 3.38.
For KQGSQNFRFIPVLFPNAKKEHVPT, the protein stability index is 2.65.
With KQGSCNFRFIPVLFPNAKKEHVPT, the protein stability index turned out to be 1.98.
As to KQGSDNFRFIPVLFPNAKKEHVPT, the protein stability index amounted to 3.35.
For the variant KQGSTNFRFIPVLFPNAKKEHVPT, the protein stability index is 2.5.
Take KQGSKNFRFIPVLFPNAKKEHVPT: the protein stability index was determined as 2.8.
On to KQGSWNFRFIPVLFPNAKKEHVPT, for which the protein stability index came to 1.8.
In the case of KQGSHNFRFIPVLFPNAKKEHVPT, the protein stability index worked out at 2.15.
With KQGSSNFRFIPVLFPNAKKEHVPT, the protein stability index came out at 2.04.
For the variant KQGSMNFRFIPVLEPNAKKEHVPT, the protein stability index amounted to 3.19.
Consider KQGSMNFRFIPVLHPNAKKEHVPT, for which the protein stability index came out at 2.12.
Under KQGSMNFRFIPVLRPNAKKEHVPT stands 1.8; under KQGSMNFRFIPVLPPNAKKEHVPT, 2.71; under KQGSMNFRFIPVLCPNAKKEHVPT, 1.87.
As for KQGSMNFRFIPVLYPNAKKEHVPT, the protein stability index worked out at 1.95.
As to KQGSMNFRFIPVLIPNAKKEHVPT, the protein stability index stood at 1.36.
